In patent publication US10590440B2, “Process for producing a fermentation product from a lignocellulose-containing material” (CysBio ApS, priority 2014, dated 2020):

Test system: E. coli
Experiment: Growth of E. coli with or without SULT1A1 in M9 with wheat straw biomass hydrolysate (Example 7, FIG. 9)
Format: cell-based, Escherichia coli
Details: 1 mM IPTG
From the text: Here, we examine pre-treated wheat straw biomass hydrolysate in growth medium for a biotechnological relevant organism, exemplified by E. coli. Specifically, we used strains carrying plasmids expressing SULT1A1 from rat (Rattus norvegicus) and SULT1E1 from chicken (Gallus gallus domesticus) (Example 1) cloned into the expression vector pETDuet-1, and cysDNCQ from E. coli cloned into expression vector pRSFDuet-1 (Example 2) as described previously.
Cells expressing no sulfotransferase or SULT1A1 from rat were grown in M9 media with 1 mM IPTG with or without inhibitors of growth. Biomass hydrolysate was prepared by mixing 100 g biomass hydrolysate with 200 g of water for 2 h at 37° C., followed by centrifugation and filtration through a 0.2 μL-filter.

B1: SULT1A1 Rattus norvegicus: aryl sulfotransferase SULT1A1 from Rattus norvegicus (SEQ ID NO: 1), native gene, heterologously expressed (protein, listed as Rattus norvegicus)
chain: MEFSRPPLVHVKGIPLIKYFAETIGPLQNFTAWPDDLLISTYPKSGTTWMSEILDMIYQGGKLEKCGRAPIYARVPFLEFKCPGVPSGLETLEETPAPRLLKTHLPLSLLPQSLLDQKVKVIYIARNAKDVVVSYYNFYNMAKLHPDPGTWDSFLENFMDGEVSYGSWYQHVKEWWELRHTHPVLYLFYEDIKENPKREIKKILEFLGRSLPEETVDSIVHHTSFKKMKENCMTNYTTIPTEIMDHNVSPFMRKGTTGDWKNTFTVAQNERFDAHYAKTMTDCDFKFRCEL
M9 with 8% or 12% biomass hydrolysate
  growth rate versus strain without sulfotransferase: significantly higher
M9 without supplements
  growth rate versus strain without sulfotransferase: no difference in growth rate
